The record followed here is paper PMC11192315 (PLOS Pathogens, 2024).

The target in assay [1] is RBD of SARS-CoV-2 Omicron BA.2 (SARS-CoV-2 Omicron BA.2, D405N | R408S | E484 to A484 | Q493R). Description: cell-based or functional assay.
Assay [2] concerns the target RBD of SARS-CoV-2 Omicron BA.1 (SARS-CoV-2 Omicron BA.1, E484 to A484 | Q493R | Q498R | N501Y). Description: cell-based or functional assay.

B1: JM-1A N59F mutant (antibody, V domains shown)
VH: QVQLQQSGPGLVKPSGTLSLTCAVSGASISSGDWWSWVRQSPGRGLEWIGGIFHSGTTFYSPSLKSRVTMSVDQPKNQFSLHLTSVTAADTAVYYCARMRGIFDYWGQGTLVTVSS
VL: DIQLTQSPSSLSVSVGDRVTITCRASQAISNSLAWYQQKPGKAPKLLLYAASTLESGVPSRFSGSGSGTDFTLTISSLQPEDFATYYCQHYYSTPFFGGGTKVEIK
Consider B1, for which the “IC50, neutralisation of pseudotyped lentivirus with Omicron BA.2 spike” value in assay [1] amounted to 0.011 µg/mL. The “IC50, neutralisation of pseudotyped lentivirus with Omicron BA.1 spike” value in assay [2] amounted to 0.018 µg/mL.

B2: JM-1A-G32F (antibody, V domains shown)
VH: QVQLQQSGPGLVKPSGTLSLTCAVSGASISSFDWWSWVRQSPGRGLEWIGGIFHSGTTNYSPSLKSRVTMSVDQPKNQFSLHLTSVTAADTAVYYCARMRGIFDYWGQGTLVTVSS
VL: DIQLTQSPSSLSVSVGDRVTITCRASQAISNSLAWYQQKPGKAPKLLLYAASTLESGVPSRFSGSGSGTDFTLTISSLQPEDFATYYCQHYYSTPFFGGGTKVEIK
In the case of B2, the “IC50, neutralisation of pseudotyped lentivirus with Omicron BA.2 spike” value in assay [1] worked out at 0.03 µg/mL. Further, the “IC50, neutralisation of pseudotyped lentivirus with Omicron BA.1 spike” value in assay [2] stood at 0.019 µg/mL.
